Source: patent publication US20060211610A1 (IPSEN PHARMA S A S, published 2006)
Each block holds one binder with its values, some of them ahead of it. Non-standard residues stand in square brackets, D forms with d. Ala(4-thiazolyl) = N[C@@H](Cc1cscn1)C(=O)O; 2Pal = N[C@@H](Cc1ccccn1)C(=O)O; 3Pal = N[C@@H](Cc1cccnc1)C(=O)O; 4Pal = N[C@@H](Cc1ccncc1)C(=O)O; d2Pal = N[C@H](Cc1ccccn1)C(=O)O; Ac6c = NC1(C(=O)O)CCCCC1; Ac5c = NC1(C(=O)O)CCCC1

Key:
Y2 receptor = target: T1, Y2 receptor (human, UniProt P49146 1-381); experiment: radioligand competition against [125I]PYY(3-36), SK-N-BE2 membranes, Cheng-Prusoff
T1 construct: whole, on cells; Assayed as membrane homogenates of SK-N-BE2 cells, not intact cells
T1 sequence (looked up): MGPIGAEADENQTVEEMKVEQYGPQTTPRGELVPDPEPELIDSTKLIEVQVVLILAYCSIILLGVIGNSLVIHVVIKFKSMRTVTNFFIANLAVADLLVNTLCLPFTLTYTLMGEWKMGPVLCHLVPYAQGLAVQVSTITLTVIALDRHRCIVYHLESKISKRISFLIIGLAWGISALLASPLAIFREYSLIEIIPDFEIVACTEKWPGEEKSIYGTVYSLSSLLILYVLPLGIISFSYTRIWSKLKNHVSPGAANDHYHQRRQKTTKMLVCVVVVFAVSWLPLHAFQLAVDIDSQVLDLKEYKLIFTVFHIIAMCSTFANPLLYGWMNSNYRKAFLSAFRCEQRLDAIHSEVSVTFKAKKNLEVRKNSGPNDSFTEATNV
Procedure: (§1) The final pellets were resuspended in approximately 20 ml of 50 mM Tris-HCl containing 5.0 mM MgCl₂, 0.1 mg/ml bacitracin, and 0.1% BSA (Buffer B), and held on ice for the receptor binding assay.
(§2) For assay, aliquots (0.4 ml) of the foregoing suspensions were incubated with 0.05 ml of 0.05 nM [¹²⁵I-Leu³¹, Pro³⁴]PYY (Y1 receptor) or [¹²⁵I]PYY(3-36) (Y2 receptor), (each ˜2200 Ci/mmol, New England Nuclear) in Buffer B, with or without 0.05 ml a solution (ranging from 0.01 nM -1000 nM) of an unlabeled competing peptide. After a 120 min incubation (25° C.), the bound radioligand was separated from the free by rapid filtration through GF/C filters, previously soaked in 0.3% polyethyleneimine. […] Inhibition constants (K₁,) were calculated using the well-known Cheng-Prusoff equation.

Y1 receptor = target: T2, Y1 receptor (human, UniProt P25929 1-384); experiment: radioligand competition against [125I-Leu31,Pro34]PYY, SK-N-MC membranes, Cheng-Prusoff
T2 construct: whole, on cells; Assayed as membrane homogenates of SK-N-MC cells, not intact cells; also called NPY Y1
T2 sequence (looked up): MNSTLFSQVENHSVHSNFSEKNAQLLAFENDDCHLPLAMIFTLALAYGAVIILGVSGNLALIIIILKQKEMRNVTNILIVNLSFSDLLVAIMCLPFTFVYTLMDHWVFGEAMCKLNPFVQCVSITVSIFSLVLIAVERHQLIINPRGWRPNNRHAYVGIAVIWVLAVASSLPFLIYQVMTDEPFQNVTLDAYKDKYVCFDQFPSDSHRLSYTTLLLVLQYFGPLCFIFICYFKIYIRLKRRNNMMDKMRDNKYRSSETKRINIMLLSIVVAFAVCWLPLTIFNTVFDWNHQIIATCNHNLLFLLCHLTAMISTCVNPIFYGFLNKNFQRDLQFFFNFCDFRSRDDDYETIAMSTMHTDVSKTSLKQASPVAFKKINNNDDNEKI
Procedure: as §1, §2

Ki (Y2 receptor): < 1 µM | Ki (Y1 receptor): < 2 µM
B1: Ac-(4Pal^26, Leu^31)hPPY(24-36)NH2 (peptide)
peptide: Ac-LR[4Pal]YLNLLTRQRY-NH2
SMILES: CC(=O)N[C@@H](CC(C)C)C(=O)N[C@@H](CCCNC(=N)N)C(=O)N[C@@H](Cc1ccncc1)C(=O)N[C@@H](Cc1ccc(O)cc1)C(=O)N[C@@H](CC(C)C)C(=O)N[C@@H](CC(N)=O)C(=O)N[C@@H](CC(C)C)C(=O)N[C@@H](CC(C)C)C(=O)N[C@H](C(=O)N[C@@H](CCCNC(=N)N)C(=O)N[C@@H](CCC(N)=O)C(=O)N[C@@H](CCCNC(=N)N)C(=O)N[C@@H](Cc1ccc(O)cc1)C(N)=O)[C@@H](C)O
notes: Also carries Leu at 31 (residue 8 of the peptide), already in the entry

Ki (Y2 receptor): < 1 µM | Ki (Y1 receptor): < 2 µM
B2: Ac-[A6c^30]hPYY(22-36)NH2 (peptide)
peptide: Ac-ASLRHYLN[Ac6c]VTRQRY-NH2
SMILES: CC(=O)N[C@@H](C)C(=O)N[C@@H](CO)C(=O)N[C@@H](CC(C)C)C(=O)N[C@@H](CCCNC(=N)N)C(=O)N[C@@H](Cc1c[nH]cn1)C(=O)N[C@@H](Cc1ccc(O)cc1)C(=O)N[C@@H](CC(C)C)C(=O)N[C@@H](CC(N)=O)C(=O)NC1(C(=O)N[C@H](C(=O)N[C@H](C(=O)N[C@@H](CCCNC(=N)N)C(=O)N[C@@H](CCC(N)=O)C(=O)N[C@@H](CCCNC(=N)N)C(=O)N[C@@H](Cc2ccc(O)cc2)C(N)=O)[C@@H](C)O)C(C)C)CCCCC1
notes: Synthetic analog of human PYY(22-36)

Ki (Y2 receptor): < 1 µM | Ki (Y1 receptor): < 2 µM
B3: Ac-[2Pal^26]hPYY(22-36)NH2 (peptide)
peptide: Ac-ASLR[2Pal]YLNLVTRQRY-NH2
SMILES: CC(=O)N[C@@H](C)C(=O)N[C@@H](CO)C(=O)N[C@@H](CC(C)C)C(=O)N[C@@H](CCCNC(=N)N)C(=O)N[C@@H](Cc1ccccn1)C(=O)N[C@@H](Cc1ccc(O)cc1)C(=O)N[C@@H](CC(C)C)C(=O)N[C@@H](CC(N)=O)C(=O)N[C@@H](CC(C)C)C(=O)N[C@H](C(=O)N[C@H](C(=O)N[C@@H](CCCNC(=N)N)C(=O)N[C@@H](CCC(N)=O)C(=O)N[C@@H](CCCNC(=N)N)C(=O)N[C@@H](Cc1ccc(O)cc1)C(N)=O)[C@@H](C)O)C(C)C
notes: as for B2

Ki (Y2 receptor): < 1 µM | Ki (Y1 receptor): < 2 µM
B4: Ac-[4Pal^26]hPYY(22-36)NH2 (peptide)
peptide: Ac-ASLR[4Pal]YLNLVTRQRY-NH2
SMILES: CC(=O)N[C@@H](C)C(=O)N[C@@H](CO)C(=O)N[C@@H](CC(C)C)C(=O)N[C@@H](CCCNC(=N)N)C(=O)N[C@@H](Cc1ccncc1)C(=O)N[C@@H](Cc1ccc(O)cc1)C(=O)N[C@@H](CC(C)C)C(=O)N[C@@H](CC(N)=O)C(=O)N[C@@H](CC(C)C)C(=O)N[C@H](C(=O)N[C@H](C(=O)N[C@@H](CCCNC(=N)N)C(=O)N[C@@H](CCC(N)=O)C(=O)N[C@@H](CCCNC(=N)N)C(=O)N[C@@H](Cc1ccc(O)cc1)C(N)=O)[C@@H](C)O)C(C)C
notes: as for B2

Ki (Y2 receptor): < 1 µM | Ki (Y1 receptor): < 2 µM
B5: Ac-(2Pal^26, Leu^31)hPPY(24-36)NH2 (peptide)
peptide: Ac-LR[2Pal]YLNLLTRQRY-NH2
SMILES: CC(=O)N[C@@H](CC(C)C)C(=O)N[C@@H](CCCNC(=N)N)C(=O)N[C@@H](Cc1ccccn1)C(=O)N[C@@H](Cc1ccc(O)cc1)C(=O)N[C@@H](CC(C)C)C(=O)N[C@@H](CC(N)=O)C(=O)N[C@@H](CC(C)C)C(=O)N[C@@H](CC(C)C)C(=O)N[C@H](C(=O)N[C@@H](CCCNC(=N)N)C(=O)N[C@@H](CCC(N)=O)C(=O)N[C@@H](CCCNC(=N)N)C(=O)N[C@@H](Cc1ccc(O)cc1)C(N)=O)[C@@H](C)O
notes: as for B1

Ki (Y2 receptor): < 1 µM | Ki (Y1 receptor): < 2 µM
B6: Ac-[D2Pal^26]hPYY(22-36)NH2 (peptide)
peptide: Ac-ASLR[d2Pal]YLNLVTRQRY-NH2
SMILES: CC(=O)N[C@@H](C)C(=O)N[C@@H](CO)C(=O)N[C@@H](CC(C)C)C(=O)N[C@@H](CCCNC(=N)N)C(=O)N[C@H](Cc1ccccn1)C(=O)N[C@@H](Cc1ccc(O)cc1)C(=O)N[C@@H](CC(C)C)C(=O)N[C@@H](CC(N)=O)C(=O)N[C@@H](CC(C)C)C(=O)N[C@H](C(=O)N[C@H](C(=O)N[C@@H](CCCNC(=N)N)C(=O)N[C@@H](CCC(N)=O)C(=O)N[C@@H](CCCNC(=N)N)C(=O)N[C@@H](Cc1ccc(O)cc1)C(N)=O)[C@@H](C)O)C(C)C
notes: as for B2

Ki (Y2 receptor): < 1 µM | Ki (Y1 receptor): < 2 µM
B7: Ac-[A6c^28]hPYY(22-36)NH2 (peptide)
peptide: Ac-ASLRHY[Ac6c]NLVTRQRY-NH2
SMILES: CC(=O)N[C@@H](C)C(=O)N[C@@H](CO)C(=O)N[C@@H](CC(C)C)C(=O)N[C@@H](CCCNC(=N)N)C(=O)N[C@@H](Cc1c[nH]cn1)C(=O)N[C@@H](Cc1ccc(O)cc1)C(=O)NC1(C(=O)N[C@@H](CC(N)=O)C(=O)N[C@@H](CC(C)C)C(=O)N[C@H](C(=O)N[C@H](C(=O)N[C@@H](CCCNC(=N)N)C(=O)N[C@@H](CCC(N)=O)C(=O)N[C@@H](CCCNC(=N)N)C(=O)N[C@@H](Cc2ccc(O)cc2)C(N)=O)[C@@H](C)O)C(C)C)CCCCC1
notes: as for B2

Ki (Y2 receptor): < 1 µM | Ki (Y1 receptor): < 2 µM
B8: Ac-(Taz^26, Leu^31)hPPY(24-36)NH2 (peptide)
peptide: Ac-LR[Ala(4-thiazolyl)]YLNLLTRQRY-NH2
SMILES: CC(=O)N[C@@H](CC(C)C)C(=O)N[C@@H](CCCNC(=N)N)C(=O)N[C@@H](Cc1cscn1)C(=O)N[C@@H](Cc1ccc(O)cc1)C(=O)N[C@@H](CC(C)C)C(=O)N[C@@H](CC(N)=O)C(=O)N[C@@H](CC(C)C)C(=O)N[C@@H](CC(C)C)C(=O)N[C@H](C(=O)N[C@@H](CCCNC(=N)N)C(=O)N[C@@H](CCC(N)=O)C(=O)N[C@@H](CCCNC(=N)N)C(=O)N[C@@H](Cc1ccc(O)cc1)C(N)=O)[C@@H](C)O
notes: as for B1

Ki (Y2 receptor): < 1 µM | Ki (Y1 receptor): < 2 µM
B9: Ac-[3Pal^26]hPYY(22-36)NH2 (peptide)
peptide: Ac-ASLR[3Pal]YLNLVTRQRY-NH2
SMILES: CC(=O)N[C@@H](C)C(=O)N[C@@H](CO)C(=O)N[C@@H](CC(C)C)C(=O)N[C@@H](CCCNC(=N)N)C(=O)N[C@@H](Cc1cccnc1)C(=O)N[C@@H](Cc1ccc(O)cc1)C(=O)N[C@@H](CC(C)C)C(=O)N[C@@H](CC(N)=O)C(=O)N[C@@H](CC(C)C)C(=O)N[C@H](C(=O)N[C@H](C(=O)N[C@@H](CCCNC(=N)N)C(=O)N[C@@H](CCC(N)=O)C(=O)N[C@@H](CCCNC(=N)N)C(=O)N[C@@H](Cc1ccc(O)cc1)C(N)=O)[C@@H](C)O)C(C)C
notes: as for B2

Ki (Y2 receptor): < 1 µM | Ki (Y1 receptor): < 2 µM
B10: Ac-[A6c^31]hPYY(22-36)NH2 (peptide)
peptide: Ac-ASLRHYLNL[Ac6c]TRQRY-NH2
SMILES: CC(=O)N[C@@H](C)C(=O)N[C@@H](CO)C(=O)N[C@@H](CC(C)C)C(=O)N[C@@H](CCCNC(=N)N)C(=O)N[C@@H](Cc1c[nH]cn1)C(=O)N[C@@H](Cc1ccc(O)cc1)C(=O)N[C@@H](CC(C)C)C(=O)N[C@@H](CC(N)=O)C(=O)N[C@@H](CC(C)C)C(=O)NC1(C(=O)N[C@H](C(=O)N[C@@H](CCCNC(=N)N)C(=O)N[C@@H](CCC(N)=O)C(=O)N[C@@H](CCCNC(=N)N)C(=O)N[C@@H](Cc2ccc(O)cc2)C(N)=O)[C@@H](C)O)CCCCC1
notes: as for B2

Ki (Y2 receptor): < 1 µM | Ki (Y1 receptor): < 2 µM
B11: Ac-[A6C^24, Leu^31]hPYY(24-36)NH2 (peptide)
peptide: Ac-[Ac6c]RHYLNLLTRQRY-NH2
SMILES: CC(=O)NC1(C(=O)N[C@@H](CCCNC(=N)N)C(=O)N[C@@H](Cc2c[nH]cn2)C(=O)N[C@@H](Cc2ccc(O)cc2)C(=O)N[C@@H](CC(C)C)C(=O)N[C@@H](CC(N)=O)C(=O)N[C@@H](CC(C)C)C(=O)N[C@@H](CC(C)C)C(=O)N[C@H](C(=O)N[C@@H](CCCNC(=N)N)C(=O)N[C@@H](CCC(N)=O)C(=O)N[C@@H](CCCNC(=N)N)C(=O)N[C@@H](Cc2ccc(O)cc2)C(N)=O)[C@@H](C)O)CCCCC1
notes: as for B1

Ki (Y2 receptor): < 1 µM | Ki (Y1 receptor): < 2 µM
B12: Ac-(3Pal^26, Leu^31)hPPY(24-36)NH2 (peptide)
peptide: Ac-LR[3Pal]YLNLLTRQRY-NH2
SMILES: CC(=O)N[C@@H](CC(C)C)C(=O)N[C@@H](CCCNC(=N)N)C(=O)N[C@@H](Cc1cccnc1)C(=O)N[C@@H](Cc1ccc(O)cc1)C(=O)N[C@@H](CC(C)C)C(=O)N[C@@H](CC(N)=O)C(=O)N[C@@H](CC(C)C)C(=O)N[C@@H](CC(C)C)C(=O)N[C@H](C(=O)N[C@@H](CCCNC(=N)N)C(=O)N[C@@H](CCC(N)=O)C(=O)N[C@@H](CCCNC(=N)N)C(=O)N[C@@H](Cc1ccc(O)cc1)C(N)=O)[C@@H](C)O
notes: as for B1

Ki (Y2 receptor): < 1 µM | Ki (Y1 receptor): < 2 µM
B13: Ac-[A5c^31]hPYY(22-36)NH2 (peptide)
peptide: Ac-ASLRHYLNL[Ac5c]TRQRY-NH2
SMILES: CC(=O)N[C@@H](C)C(=O)N[C@@H](CO)C(=O)N[C@@H](CC(C)C)C(=O)N[C@@H](CCCNC(=N)N)C(=O)N[C@@H](Cc1c[nH]cn1)C(=O)N[C@@H](Cc1ccc(O)cc1)C(=O)N[C@@H](CC(C)C)C(=O)N[C@@H](CC(N)=O)C(=O)N[C@@H](CC(C)C)C(=O)NC1(C(=O)N[C@H](C(=O)N[C@@H](CCCNC(=N)N)C(=O)N[C@@H](CCC(N)=O)C(=O)N[C@@H](CCCNC(=N)N)C(=O)N[C@@H](Cc2ccc(O)cc2)C(N)=O)[C@@H](C)O)CCCC1
notes: as for B2
